Experimental data published in publication PMC5095173, “Disulfide-activated protein kinase G Iα regulates cardiac diastolic relaxation and fine-tunes the Frank–Starling response” (Nature Communications, 2016).
Where no end group is shown, it is not given here.

B1: oxidized (WT) protein kinase G Iα, Cys42 disulfide dimer (enzyme, human, UniProt Q13976 1-671, looked up)
chain: MSELEEDFAKILMLKEERIKELEKRLSEKEEEIQELKRKLHKCQSVLPVPSTHIGPRTTRAQGISAEPQTYRSFHDLRQAFRKFTKSERSKDLIKEAILDNDFMKNLELSQIQEIVDCMYPVEYGKDSCIIKEGDVGSLVYVMEDGKVEVTKEGVKLCTMGPGKVFGELAILYNCTRTATVKTLVNVKLWAIDRQCFQTIMMRTGLIKHTEYMEFLKSVPTFQSLPEEILSKLADVLEETHYENGEYIIRQGARGDTFFIISKGTVNVTREDSPSEDPVFLRTLGKGDWFGEKALQGEDVRTANVIAAEAVTCLVIDRDSFKHLIGGLDDVSNKAYEDAEAKAKYEAEAAFFANLKLSDFNIIDTLGVGGFGRVELVQLKSEESKTFAMKILKKRHIVDTRQQEHIRSEKQIMQGAHSDFIVRLYRTFKDSKYLYMLMEACLGGELWTILRDRGSFEDSTTRFYTACVVEAFAYLHSKGIIYRDLKPENLILDHRGYAKLVDFGFAKKIGFGKKTWTFCGTPEYVAPEIILNKGHDISADYWSLGILMYELLTGSPPFSGPDPMKTYNIILRGIDMIEFPKKIAKNAANLIKKLCRDNPSERLGNLKNGVKDIQKHKWFEGFNWEGLRKGTLTPPIIPSVASPTDTSNFDSFPEDNDEPPPDDNSGWDIDF
modifications: intermolecular disulfide bond at Cys42 between the two subunits
notes: protein kinase G Iα (cGMP-dependent protein kinase 1, alpha isoform), human, untagged WT construct; also called PKGIα; source: FreeStyle 293-F cells, transfected, purified (8-AEA-cAMP agarose, size exclusion chromatography); incubated with 10 mM lipoic acid to obtain the disulfide dimer

Tests used:
[1] = biological target: B1; test: ITC; PLN (1–23) (700 μM) titrated into the cell containing WT disulfide PKGIα or the C42S mutant (70 μM); 25 °C; 50 mM sodium phosphate buffer pH 7.4, 100 mM NaCl; no cyclic nucleotide; conditions: both partners purified
[2] = biological target: the molecule itself; test: cross-linking; intermolecular Cys42 disulfide of purified recombinant PKGIα (lipoic acid or air oxidation) seen as dimer by SDS-PAGE

Row | Kd [1] [µM] | stoichiometry N [1] | Binder | stoichiometry N [2]
1 | ~7 | 1 PLN peptide per PKGIα disulfide dimer | Ac-MEKVQYLTRSAIRRASTIEMPQQ (peptide, UniProt P26678 1-23, looked up, cardiac phospholamban, human, residues 1-23 (N-terminal cytoplasmic domain); also called PLN_(1–23); PLN (1–23); source: synthetic peptide; bought: PeptideSynthetics (Peptide Protein Research Ltd, UK)) | 
2 |  |  | B1 | 2
